Positions count from the first letter of the chain named. Values belong to the binder of their own block, whether it stands above or below them.
Target: Labeled peptide representing the N-terminus of PAR-2 (FRET peptide)
Test: cell-based or functional assay

B1: Ab4996 IgG4_Pro (antibody, V domains shown)
VH: QVQLVESGGGLVQPGGSLRLSCAASGFTFSNHAMHWVRQAPGKGLEWVSAISHPGKFTYYADSVKGRFTISRDNSKNTLYLQMNSLRAEDTAVYYCARHGDGMDYFDFWGQGTLVTVSS
VL: DIELTQPPSVSVAPGQTARISCSGDNIGTKYVYWYQQKPGQAPVLVIYDDNNRPSGIPERFSGSNSGNTATLTISGTQAEDEADYYCQSYDSQTMVFGGGTKLTVLG
FRET Peptide Cleavage IC50: < 30 nM

B2: Ab4994 IgG4_Pro (antibody, V domains shown)
VH: QVQLVESGGGLVQPGGSLRLSCAASGFTFSSYAMNWVRQAPGKGLEWVSAISYSGHLTGYADSVKGRFTISRDNSKNTLYLQMNSLRAEDTAVYYCARIQNDPMDVWGQGTLVTVSS
VL: DIELTQPPSVSVAPGQTARISCSGDNLGKKYVQWYQQKPGQAPVLVIYDDSNRPSGIPERFSGSNSGNTATLTISGTQAEDEADYYCSSWDVGSDGWVFGGGTKLTVLG
FRET Peptide Cleavage IC50: < 30 nM

B3: Ab4999 IgG4_Pro (antibody, V domains shown)
VH: B2 VH with A50T, G55S, H56S, L57A, G59S
VL: DIELTQPPSVSVAPGQTARISCSGDNLGKKYVQWYQQKPGQAPVLVIYDDSNRPSGIPERFSGSNSGNTATLTISGTQAEDEADYYCQTWDYSSIRDETNVFGGGTKLTVLG
FRET Peptide Cleavage IC50: < 30 nM

B5: Ab5003 IgG4_Pro (antibody, V domains shown)
VH: B2 VH with S54K
VL: B2 VL
FRET Peptide Cleavage IC50: < 30 nM

B8: Ab4997 IgG4_Pro (antibody, V domains shown)
VH: B2 VH with S54N, H56K, T58K
VL: B2 VL
FRET Peptide Cleavage IC50: < 30 nM

Other lines, results leading:

FRET Peptide Cleavage IC50: < 30 nM
B4: Ab5007 IgG4_Pro (antibody, V domains shown)
VH: B2 VH with Y53F
VL: B2 VL

FRET Peptide Cleavage IC50: < 30 nM
B6: Ab5150 IgG4_Pro (light chain of Ab4999 combined with heavy chain of Ab5003) (antibody, V domains shown)
VH: B2 VH with S54K
VL: B3 VL

FRET Peptide Cleavage IC50: < 30 nM
B7: Ab5151 IgG4_Pro (light chain of Ab4999 combined with heavy chain of Ab5007) (antibody, V domains shown)
VH: B2 VH with Y53F
VL: B3 VL

FRET Peptide Cleavage IC50: < 30 nM
B9: Ab5149 IgG4_Pro (light chain of Ab4999 combined with heavy chain of Ab4997) (antibody, V domains shown)
VH: B2 VH with S54N, H56K, T58K
VL: B3 VL

FRET Peptide Cleavage IC50: < 30 nM
B10: Ab5005 IgG4_Pro (antibody, V domains shown)
VH: B2 VH with A50T, G55S, H56S, L57A, G59S
VL: DIELTQPPSVSVAPGQTARISCSGDNLGKKYVQWYQQKPGQAPVLVIYDDSNRPSGIPERFSGSNSGNTATLTISGTQAEDEADYYCQSWALVGSSESNVFGGGTKLTVLG
